The values below come from patent US10005846 (LIFEARC, dated 2018).

Test [1] addresses T1, human transglutaminase type 2 (TG2) (human, UniProt P21980 1-687).
T1 construct: Recombinant full-length human TG2 (Zedira; cat; T002 in the Biacore work); Also used here for the endogenous TG2 of HepG2 lysate and HK-2 cells; also called hTG2; rhTG2
T1 sequence: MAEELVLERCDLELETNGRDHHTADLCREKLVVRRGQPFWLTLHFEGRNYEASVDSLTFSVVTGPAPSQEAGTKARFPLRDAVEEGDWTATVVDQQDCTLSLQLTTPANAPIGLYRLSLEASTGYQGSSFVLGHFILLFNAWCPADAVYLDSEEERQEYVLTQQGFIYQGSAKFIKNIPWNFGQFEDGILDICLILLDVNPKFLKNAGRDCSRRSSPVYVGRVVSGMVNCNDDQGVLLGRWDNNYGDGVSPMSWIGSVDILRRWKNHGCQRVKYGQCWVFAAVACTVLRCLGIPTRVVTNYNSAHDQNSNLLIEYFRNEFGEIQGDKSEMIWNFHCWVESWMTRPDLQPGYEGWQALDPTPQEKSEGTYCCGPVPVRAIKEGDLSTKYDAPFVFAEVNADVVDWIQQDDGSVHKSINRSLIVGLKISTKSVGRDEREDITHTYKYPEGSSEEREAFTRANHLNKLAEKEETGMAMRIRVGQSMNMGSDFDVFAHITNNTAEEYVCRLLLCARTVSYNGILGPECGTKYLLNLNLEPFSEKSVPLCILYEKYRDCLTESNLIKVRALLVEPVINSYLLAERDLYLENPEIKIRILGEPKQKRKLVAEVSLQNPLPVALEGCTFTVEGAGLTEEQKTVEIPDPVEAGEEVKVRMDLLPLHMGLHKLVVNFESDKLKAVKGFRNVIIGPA
The experiment in a line: ELISA on immobilised human TG2; r2 0.9968; EC50 95% confidence range 0.2890 to 0.4002 [panel A]. On the procedure:
(§1) Antibody binding to human and cynomolgus monkey TG2 was determined in an ELISA assay. Clear polystyrene "Maxisorp" 96-well plates (Nunc) were coated with 50 ng purified human or cynomogulus monkey TG2 in 50 µl 0.05 M carbonate-bicarbonate buffer pH 9.6 at 4° C. overnight. Control wells were coated with 50 µl 100 µg/ml bovine serum albumin (BSA). Plates were washed 3× with 300 µl phosphate-buffered saline pH7.4 (PBS) containing 0.1% Tween 20 (PBST) and blocked with 300 µl 3% w/v Marvel skimmed milk in PBS for 1 hour at room temperature. After 3× wash with PBST, 50 µl protein-A purified chimeric or humanised anti-TG2 antibodies or human IgG1 kappa […] control antibody or CUB7402 (Abcam) were serially diluted 4-fold from a top concentration of 50 nM in PBS, and added to the plate in duplicate. […] After 3× washes with PBST, the plates were developed with 50 µl TMB substrate (Sigma) for 5 min at room temperature before stopping the reaction with 25 µl 0.5M H2SO4 and reading absorbance at 450 nm in a microtiter plate reader (BioTek EL808). Dose response curves were analysed and EC50 values and other statistical parameters determined using a 4-parameter logistical fit of the data (GraphPad Prism).
For orientation: An ELISA detects its analyte on a solid surface through an enzyme-linked reagent.

For test [2], the target named is T2, cynomolgus monkey TG2 (cynomolgus monkey, UniProt A0A2K5VXI8 1-687).
T2 construct: Bought recombinant protein; also called cynomogulus monkey TG2; cyano TG2
T2 sequence: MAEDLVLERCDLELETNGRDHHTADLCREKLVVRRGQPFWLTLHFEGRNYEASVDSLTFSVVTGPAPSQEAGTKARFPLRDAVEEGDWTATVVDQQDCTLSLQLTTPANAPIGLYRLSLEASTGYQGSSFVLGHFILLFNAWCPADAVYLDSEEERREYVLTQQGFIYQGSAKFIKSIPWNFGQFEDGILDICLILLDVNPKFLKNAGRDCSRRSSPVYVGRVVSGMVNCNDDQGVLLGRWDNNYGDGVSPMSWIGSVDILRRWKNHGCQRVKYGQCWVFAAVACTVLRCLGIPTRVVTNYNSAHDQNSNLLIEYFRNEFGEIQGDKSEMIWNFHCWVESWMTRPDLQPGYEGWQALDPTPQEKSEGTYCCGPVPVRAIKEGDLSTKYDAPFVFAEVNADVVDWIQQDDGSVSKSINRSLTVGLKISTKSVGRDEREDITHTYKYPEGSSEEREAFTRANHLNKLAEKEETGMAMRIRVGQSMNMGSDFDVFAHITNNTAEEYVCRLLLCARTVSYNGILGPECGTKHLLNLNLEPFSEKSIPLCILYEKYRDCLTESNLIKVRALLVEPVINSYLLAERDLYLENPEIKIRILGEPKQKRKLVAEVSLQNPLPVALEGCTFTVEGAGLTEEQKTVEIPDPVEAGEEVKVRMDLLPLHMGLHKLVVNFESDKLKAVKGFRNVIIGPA
Kind of test: ELISA on immobilised cynomolgus monkey TG2; r2 0.9986; EC50 95% confidence range 0.6682 to 0.8162 [panel A]. On the procedure: as §1

Test [3] concerns the target T1, human transglutaminase type 2 (TG2). Kind of test: cell-based or functional assay.
Test [4] has the same target. The experiment in a line: ELISA on immobilised human TG2; r2 0.998; EC50 95% confidence range 0.1860 to 0.2368 [panel A]. On the procedure: as §1
Test [5] has the same target. The experiment in a line: cell-based or functional assay. The source holds these as a separate data set.
The target of test [6] is T2, cynomolgus monkey TG2. Kind of test: ELISA on immobilised cynomolgus monkey TG2; r2 0.9383; EC50 95% confidence range 0.03303 to 0.08079 [panel B]. On the procedure: as §1

B1: cDH001 chimeric antibody (murine DH2 variable regions) (antibody, human IgG1, V domains shown)
VH: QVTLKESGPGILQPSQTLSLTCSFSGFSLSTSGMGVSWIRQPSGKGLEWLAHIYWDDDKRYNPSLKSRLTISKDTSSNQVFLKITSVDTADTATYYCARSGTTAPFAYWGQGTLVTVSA
VL: QIVLTQSPAIMSASPGEKVTMTCSASSSVSYMYWYQQKPGSSPRLLIYDTSNLASGVPVRFSGSGSGTSYSLTISRMEAEDAATFYCQQWSSSPLTFGAGTKLELK
Take B1: the EC50 amounted to 0.34 nM in test [1] and 0.739 nM with cynomolgus monkey TG2 [2].

B2: cDD9001 chimeric antibody (murine DD9 variable regions) (antibody, human IgG1, V domains shown)
VH: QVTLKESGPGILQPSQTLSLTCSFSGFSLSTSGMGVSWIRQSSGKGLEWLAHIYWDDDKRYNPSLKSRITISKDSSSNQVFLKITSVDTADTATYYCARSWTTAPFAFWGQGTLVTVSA
VL: QIVLTQSPAIMSASPGEKVTMTCSASSSVDYMYWYQQKPGSSPRLLIYDTSNLASGVPVRFSGSGSGTSYSLTISRMGAEDAATYYCQQWNSSPLTFGAGTKLELK
Take B2: the “IC50 of enzymatic inhibition, dansylated lysine incorporation into N,N-dimethylated casein [continued), panel D]” value in test [3] turned out to be 172 nM. Further, in test [4], the EC50 is 0.21 nM.

B3: cBB001 chimeric antibody (murine BB7 variable regions) (antibody, human IgG1, V domains shown)
VH: AVQLVESGGGLVKPGGSLKLSCAASGIIFSSSAMSWVRQTPEKRLEWVATISSGGRSTYYPDSVKGRFTVSRDSAKNTLYLQMDSLRSEDTAIYYCAKLISPYWGQGTTLTVSS
VL: AIKMTQSPSSMYASLGERVIITCKASQDINSYLTWFQQKPGKSPKTLIYLTNRLMDGVPSRFSGSGSGQEFLLTISGLEHEDMGIYYCLQYVDFPYTFGGGTKLEIK
notes: also called chimeric BB7
Consider B3, for which the “IC50 of enzymatic inhibition, dansylated lysine incorporation into N,N-dimethylated casein [panel B]” value in test [5] was 0.925 nM. The same molecule returned an EC50 with cynomolgus monkey TG2 [6] of 0.0517 nM.

Usually EC50 stands for the concentration needed to bring the measured effect to its halfway point.
